Experimental data from patent US20170355766A1 (Xencor, published 2017).

T1: human FcγRIIb receptor protein (R&D Systems) (human, UniProt P31994 46-217)
T1 construct: Analyte injected over antibodies captured on a protein A/G chip (Biacore); also called CD32b
T1 sequence (looked up): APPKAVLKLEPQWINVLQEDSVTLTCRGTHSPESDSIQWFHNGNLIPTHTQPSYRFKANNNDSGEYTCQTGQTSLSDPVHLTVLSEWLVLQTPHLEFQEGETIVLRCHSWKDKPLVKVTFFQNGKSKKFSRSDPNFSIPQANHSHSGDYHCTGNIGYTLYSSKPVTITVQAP

T2: FcγRIIaR (human, UniProt P12318)
T2 construct: recombinant receptor protein with 6xHis and GST tags; also called R131 FcγRIIa
T2 sequence (receptor, looked up): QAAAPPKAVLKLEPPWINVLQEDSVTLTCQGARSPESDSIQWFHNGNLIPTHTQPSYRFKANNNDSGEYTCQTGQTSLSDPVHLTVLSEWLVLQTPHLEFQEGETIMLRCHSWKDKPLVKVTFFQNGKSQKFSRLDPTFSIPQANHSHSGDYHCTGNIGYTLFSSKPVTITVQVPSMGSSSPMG


Key:
[1] = target: T1, human FcγRIIb receptor protein (R&D …); experiment: SPR (Biacore)
FcγRIIaR = target: T2, FcγRIIaR; experiment: SPR (Biacore)

Row | Binder | Fold FcγRIIb [1] | Fold FcγRIIaR (FcγRIIaR)
1 | L234V (antibody, human IgG1, kappa, HuAM4G7 IgG1 Fc variant) heavy: not shown light: DIVMTQSPATLSLSPGERATLSCRSSKSLQNVNGNTYLYWFQQKPGQSPQLLIYRMSNLNSGVPDRFSGSGSGTEFTLTISSLEPEDFAVYYCMQHLEYPITFGAGTKLEIKRTVAAPSVFIFPPSDEQLKSGTASVVCLLNNFYPREAKVQWKVDNALQSGNSQESVTEQDSKDSTYSLSSTLTLSKADYEKHKVYACEVTHQGLSSPVTKSFNRGEC | 0.456 fold | 0.134 fold
2 | L234Y (antibody, human IgG1, kappa, HuAM4G7 IgG1 Fc variant) heavy: not shown light: DIVMTQSPATLSLSPGERATLSCRSSKSLQNVNGNTYLYWFQQKPGQSPQLLIYRMSNLNSGVPDRFSGSGSGTEFTLTISSLEPEDFAVYYCMQHLEYPITFGAGTKLEIKRTVAAPSVFIFPPSDEQLKSGTASVVCLLNNFYPREAKVQWKVDNALQSGNSQESVTEQDSKDSTYSLSSTLTLSKADYEKHKVYACEVTHQGLSSPVTKSFNRGEC | 0.0237 fold | 0.0511 fold
3 | L235T/S267E (antibody, human IgG1, kappa, HuAM4G7 IgG1 Fc variant) heavy: not shown light: DIVMTQSPATLSLSPGERATLSCRSSKSLQNVNGNTYLYWFQQKPGQSPQLLIYRMSNLNSGVPDRFSGSGSGTEFTLTISSLEPEDFAVYYCMQHLEYPITFGAGTKLEIKRTVAAPSVFIFPPSDEQLKSGTASVVCLLNNFYPREAKVQWKVDNALQSGNSQESVTEQDSKDSTYSLSSTLTLSKADYEKHKVYACEVTHQGLSSPVTKSFNRGEC | 2.37 fold | 3.06 fold
4 | L234Q (antibody, human IgG1, kappa, HuAM4G7 IgG1 Fc variant) heavy: not shown light: DIVMTQSPATLSLSPGERATLSCRSSKSLQNVNGNTYLYWFQQKPGQSPQLLIYRMSNLNSGVPDRFSGSGSGTEFTLTISSLEPEDFAVYYCMQHLEYPITFGAGTKLEIKRTVAAPSVFIFPPSDEQLKSGTASVVCLLNNFYPREAKVQWKVDNALQSGNSQESVTEQDSKDSTYSLSSTLTLSKADYEKHKVYACEVTHQGLSSPVTKSFNRGEC | 0.147 fold | 0.0372 fold
5 | L234S (antibody, human IgG1, kappa, HuAM4G7 IgG1 Fc variant) heavy: not shown light: DIVMTQSPATLSLSPGERATLSCRSSKSLQNVNGNTYLYWFQQKPGQSPQLLIYRMSNLNSGVPDRFSGSGSGTEFTLTISSLEPEDFAVYYCMQHLEYPITFGAGTKLEIKRTVAAPSVFIFPPSDEQLKSGTASVVCLLNNFYPREAKVQWKVDNALQSGNSQESVTEQDSKDSTYSLSSTLTLSKADYEKHKVYACEVTHQGLSSPVTKSFNRGEC | 0.192 fold | 0.693 fold
6 | L235R (antibody, human IgG1, kappa, HuAM4G7 IgG1 Fc variant) heavy: not shown light: DIVMTQSPATLSLSPGERATLSCRSSKSLQNVNGNTYLYWFQQKPGQSPQLLIYRMSNLNSGVPDRFSGSGSGTEFTLTISSLEPEDFAVYYCMQHLEYPITFGAGTKLEIKRTVAAPSVFIFPPSDEQLKSGTASVVCLLNNFYPREAKVQWKVDNALQSGNSQESVTEQDSKDSTYSLSSTLTLSKADYEKHKVYACEVTHQGLSSPVTKSFNRGEC | 5.58 fold | 1.02 fold

Continued, values first:

Row | Fold FcγRIIb [1] | Fold FcγRIIaR (FcγRIIaR) | Binder
7 | 5.11 fold | 0.728 fold | L234D/G236N/S267E (antibody, human IgG1, kappa, HuAM4G7 IgG1 Fc variant) heavy: EVQLVESGGGLVKPGGSLKLSCAASGYTFTSYVMHWVRQAPGKGLEWIGYINPYNDGTKYNEKFQGRVTISSDKSISTAYMELSSLRSEDTAMYYCARGTYYYGTRVFDYWGQGTLVTVSSASTKGPSVFPLAPSSKSTSGGTAALGCLVKDYFPEPVTVSWNSGALTSGVHTFPAVLQSSGLYSLSSVVTVPSSSLGTQTYICNVNHKPSNTKVDKKVEPKSCDKTHTCPPCPAPEDLNGPSVFLFPPKPKDTLMISRTPEVTCVVVDVEHEDPEVKFNWYVDGVEVHNAKTKPREEQYNSTYRVVSVLTVLHQDWLNGKEYKCKVSNKALPAPIEKTISKAKGQPREPQVYTLPPSREEMTKNQVSLTCLVKGFYPSDIAVEWESNGQPENNYKTTPPVLDSDGSFFLYSKLTVDKSRWQQGNVFSCSVMHEALHNHYTQKSLSLSPGK light: DIVMTQSPATLSLSPGERATLSCRSSKSLQNVNGNTYLYWFQQKPGQSPQLLIYRMSNLNSGVPDRFSGSGSGTEFTLTISSLEPEDFAVYYCMQHLEYPITFGAGTKLEIKRTVAAPSVFIFPPSDEQLKSGTASVVCLLNNFYPREAKVQWKVDNALQSGNSQESVTEQDSKDSTYSLSSTLTLSKADYEKHKVYACEVTHQGLSSPVTKSFNRGEC
8 | 0.108 fold | 0.0554 fold | L234I (antibody, human IgG1, kappa, HuAM4G7 IgG1 Fc variant) heavy: not shown light: DIVMTQSPATLSLSPGERATLSCRSSKSLQNVNGNTYLYWFQQKPGQSPQLLIYRMSNLNSGVPDRFSGSGSGTEFTLTISSLEPEDFAVYYCMQHLEYPITFGAGTKLEIKRTVAAPSVFIFPPSDEQLKSGTASVVCLLNNFYPREAKVQWKVDNALQSGNSQESVTEQDSKDSTYSLSSTLTLSKADYEKHKVYACEVTHQGLSSPVTKSFNRGEC
9 | 0.147 fold | 0.0859 fold | L234G (antibody, human IgG1, kappa, HuAM4G7 IgG1 Fc variant) heavy: not shown light: DIVMTQSPATLSLSPGERATLSCRSSKSLQNVNGNTYLYWFQQKPGQSPQLLIYRMSNLNSGVPDRFSGSGSGTEFTLTISSLEPEDFAVYYCMQHLEYPITFGAGTKLEIKRTVAAPSVFIFPPSDEQLKSGTASVVCLLNNFYPREAKVQWKVDNALQSGNSQESVTEQDSKDSTYSLSSTLTLSKADYEKHKVYACEVTHQGLSSPVTKSFNRGEC
10 | 0.734 fold | 0.756 fold | L235H (antibody, human IgG1, kappa, HuAM4G7 IgG1 Fc variant) heavy: not shown light: DIVMTQSPATLSLSPGERATLSCRSSKSLQNVNGNTYLYWFQQKPGQSPQLLIYRMSNLNSGVPDRFSGSGSGTEFTLTISSLEPEDFAVYYCMQHLEYPITFGAGTKLEIKRTVAAPSVFIFPPSDEQLKSGTASVVCLLNNFYPREAKVQWKVDNALQSGNSQESVTEQDSKDSTYSLSSTLTLSKADYEKHKVYACEVTHQGLSSPVTKSFNRGEC
11 | 11.4 fold | 5.69 fold | L234W/G236D/S239E/S267E (antibody, human IgG1, kappa, HuAM4G7 IgG1 Fc variant) heavy: EVQLVESGGGLVKPGGSLKLSCAASGYTFTSYVMHWVRQAPGKGLEWIGYINPYNDGTKYNEKFQGRVTISSDKSISTAYMELSSLRSEDTAMYYCARGTYYYGTRVFDYWGQGTLVTVSSASTKGPSVFPLAPSSKSTSGGTAALGCLVKDYFPEPVTVSWNSGALTSGVHTFPAVLQSSGLYSLSSVVTVPSSSLGTQTYICNVNHKPSNTKVDKKVEPKSCDKTHTCPPCPAPEWLDGPEVFLFPPKPKDTLMISRTPEVTCVVVDVEHEDPEVKFNWYVDGVEVHNAKTKPREEQYNSTYRVVSVLTVLHQDWLNGKEYKCKVSNKALPAPIEKTISKAKGQPREPQVYTLPPSREEMTKNQVSLTCLVKGFYPSDIAVEWESNGQPENNYKTTPPVLDSDGSFFLYSKLTVDKSRWQQGNVFSCSVMHEALHNHYTQKSLSLSPGK light: DIVMTQSPATLSLSPGERATLSCRSSKSLQNVNGNTYLYWFQQKPGQSPQLLIYRMSNLNSGVPDRFSGSGSGTEFTLTISSLEPEDFAVYYCMQHLEYPITFGAGTKLEIKRTVAAPSVFIFPPSDEQLKSGTASVVCLLNNFYPREAKVQWKVDNALQSGNSQESVTEQDSKDSTYSLSSTLTLSKADYEKHKVYACEVTHQGLSSPVTKSFNRGEC
12 | 42.3 fold | 98.5 fold | L234W/S239E/S267E (antibody, human IgG1, kappa, HuAM4G7 IgG1 Fc variant) heavy: EVQLVESGGGLVKPGGSLKLSCAASGYTFTSYVMHWVRQAPGKGLEWIGYINPYNDGTKYNEKFQGRVTISSDKSISTAYMELSSLRSEDTAMYYCARGTYYYGTRVFDYWGQGTLVTVSSASTKGPSVFPLAPSSKSTSGGTAALGCLVKDYFPEPVTVSWNSGALTSGVHTFPAVLQSSGLYSLSSVVTVPSSSLGTQTYICNVNHKPSNTKVDKKVEPKSCDKTHTCPPCPAPEWLGGPEVFLFPPKPKDTLMISRTPEVTCVVVDVEHEDPEVKFNWYVDGVEVHNAKTKPREEQYNSTYRVVSVLTVLHQDWLNGKEYKCKVSNKALPAPIEKTISKAKGQPREPQVYTLPPSREEMTKNQVSLTCLVKGFYPSDIAVEWESNGQPENNYKTTPPVLDSDGSFFLYSKLTVDKSRWQQGNVFSCSVMHEALHNHYTQKSLSLSPGK light: DIVMTQSPATLSLSPGERATLSCRSSKSLQNVNGNTYLYWFQQKPGQSPQLLIYRMSNLNSGVPDRFSGSGSGTEFTLTISSLEPEDFAVYYCMQHLEYPITFGAGTKLEIKRTVAAPSVFIFPPSDEQLKSGTASVVCLLNNFYPREAKVQWKVDNALQSGNSQESVTEQDSKDSTYSLSSTLTLSKADYEKHKVYACEVTHQGLSSPVTKSFNRGEC
13 | 0.0644 fold | 0.0141 fold | L234P (antibody, human IgG1, kappa, HuAM4G7 IgG1 Fc variant) heavy: not shown light: DIVMTQSPATLSLSPGERATLSCRSSKSLQNVNGNTYLYWFQQKPGQSPQLLIYRMSNLNSGVPDRFSGSGSGTEFTLTISSLEPEDFAVYYCMQHLEYPITFGAGTKLEIKRTVAAPSVFIFPPSDEQLKSGTASVVCLLNNFYPREAKVQWKVDNALQSGNSQESVTEQDSKDSTYSLSSTLTLSKADYEKHKVYACEVTHQGLSSPVTKSFNRGEC
14 | 0.147 fold | 0.0859 fold | P329E (antibody, human IgG1, kappa, HuAM4G7 IgG1 Fc variant) heavy: not shown light: DIVMTQSPATLSLSPGERATLSCRSSKSLQNVNGNTYLYWFQQKPGQSPQLLIYRMSNLNSGVPDRFSGSGSGTEFTLTISSLEPEDFAVYYCMQHLEYPITFGAGTKLEIKRTVAAPSVFIFPPSDEQLKSGTASVVCLLNNFYPREAKVQWKVDNALQSGNSQESVTEQDSKDSTYSLSSTLTLSKADYEKHKVYACEVTHQGLSSPVTKSFNRGEC
15 | 0.55 fold | 0.333 fold | L235E (antibody, human IgG1, kappa, HuAM4G7 IgG1 Fc variant) heavy: not shown light: DIVMTQSPATLSLSPGERATLSCRSSKSLQNVNGNTYLYWFQQKPGQSPQLLIYRMSNLNSGVPDRFSGSGSGTEFTLTISSLEPEDFAVYYCMQHLEYPITFGAGTKLEIKRTVAAPSVFIFPPSDEQLKSGTASVVCLLNNFYPREAKVQWKVDNALQSGNSQESVTEQDSKDSTYSLSSTLTLSKADYEKHKVYACEVTHQGLSSPVTKSFNRGEC
